Assay results: US20240122983A1 (SHATTUCK LABS, published 2024)
Like-named read-outs stand apart in the source and are kept apart here. Each block holds one binder with its values, some of them ahead of it.

Tests used:
[1] = molecular target: T1, recombinant mouse mFLT3 protein (mouse, UniProt Q00342 28-544, limits assumed); test: Octet biolayer interferometry, mFLT3-his captured on the sensor
T1 sequence (looked up): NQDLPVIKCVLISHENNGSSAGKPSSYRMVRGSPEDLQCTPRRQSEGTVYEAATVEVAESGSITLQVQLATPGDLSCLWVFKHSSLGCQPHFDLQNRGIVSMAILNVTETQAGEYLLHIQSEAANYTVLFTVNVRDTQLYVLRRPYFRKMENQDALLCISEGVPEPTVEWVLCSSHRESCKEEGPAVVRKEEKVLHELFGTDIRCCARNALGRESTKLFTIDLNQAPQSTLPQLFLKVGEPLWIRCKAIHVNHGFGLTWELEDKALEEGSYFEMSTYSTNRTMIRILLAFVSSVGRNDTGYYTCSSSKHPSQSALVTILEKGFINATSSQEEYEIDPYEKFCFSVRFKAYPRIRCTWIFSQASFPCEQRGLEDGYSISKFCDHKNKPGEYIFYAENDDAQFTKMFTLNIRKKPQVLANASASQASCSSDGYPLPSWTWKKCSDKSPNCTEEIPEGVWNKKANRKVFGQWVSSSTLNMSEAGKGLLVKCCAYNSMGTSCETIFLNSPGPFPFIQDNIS
Source text: Octet was used to determine on-/off-rates and binding affinities to the target receptors.

anti-mIgG [2] = molecular target: T2, anti-mIgG; test: ELISA: plate-bound anti-mIgG (10ug/ml), detection anti-mIgG-HRP (1:1000)
T2 construct: capture antibody of the mFc ELISA; also called Capture Ab: anti-mIgG(10ug/ml)
Source text: (§1) Recombinant mFLT3L protein was used to generate a standard curve. […] A mouse whole IgG was used to generate a standard curve. […] Recombinant m4-1BBL protein was used to generate a standard curve.
Recombinant mFLT3L protein was used to generate a standard curve. […] A mouse whole IgG was used to generate a standard curve. […] Recombinant mOX40L protein was used to generate a standard curve.

[3] = molecular target: T3, recombinant mouse m4-1BB protein (mouse, UniProt P20334 24-187); test: Dual ELISA: capture anti-FLT3L (R&D AF427), detection with m41BB-His (Acro), tertiary anti-His/HRP (Abcam)
T3 sequence (looked up): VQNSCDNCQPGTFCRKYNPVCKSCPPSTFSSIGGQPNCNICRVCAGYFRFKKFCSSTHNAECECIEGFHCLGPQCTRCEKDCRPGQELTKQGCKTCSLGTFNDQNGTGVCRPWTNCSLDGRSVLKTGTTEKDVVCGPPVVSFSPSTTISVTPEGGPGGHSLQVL
Method: Capture was performed with an anti-FLT3L antibody, followed by detection of the co-stimulatory domain with a his-tagged recombinant protein, and visualized using an anti-his/HRP antibody.

anti-mIgG [4] = molecular target: T2, anti-mIgG; test: ELISA: plate-bound anti-mIgG (10ug/ml), detection anti-mIgG-HRP (1:1000); remark: listed apart in the source
Source text: as §1

[5] = molecular target: T3, recombinant mouse m4-1BB protein; test: ELISA: plate-bound m41BB (3.3ug/ml), detection anti-m41BBL (1:1000) and anti-goat IgG (1:10,000)
Source text: as §1

B1: mCD40L-Fc (Acro) (Fc fusion, mouse, UniProt P27548 112-260, looked up)
fusion chain: MQRGDEDPQIAAHVVSEANSNAASVLQWAKKGYYTMKSNLVMLENGKQLTVKREGLYYVYTQVTFCSNREPSSQRPFIVGLWLKPSSGSERILLKAANTHSSSQLCEQQSVHLGGVFELQAGASVFVNVTEASQVIHRVGFSSFGLLKL
notes: soluble part fused to Fc; also called commercially available mCD40L-Fc (Acro Biosystems)
binding result [1]: no binding (tested: concentration not printed)

EC50 (read off the curve) (anti-mIgG [2]): ~7 nM | EC50 (read off the curve) [3]: ~1 nM | EC50 (read off the curve) (anti-mIgG [4]): ~7 nM | EC50 (read off the curve) [5]: ~9 nM
B2: mFLT3L-Fc-4-1BBL chimeric protein (Fc fusion, murine;mouse (printed as mFc), UniProt P49772 27-189, looked up)
chain: GTPDCYFSHSPISSNFKVKFRELTDHLLKDYPVTVAVNLQDEKHCKALWSLFLAQRWIEQLKTVAGSKMQTLLEDVNTEIHFVTSCTFQPLPECLRFVQTNISHLLKDTCTQLLALKPCIGKACQNFSRCLEVQCQPDSSTLLPPRSPIALEATELPEPRPRQVPRDCGCKPCICTVPEVSSVFIFPPKPKDVLTITLTPKVTCVVVDISKDDPEVQFSWFVDDVEVHTAQTQPREEQFNSTFRSVSELPIMHQDWLNGKEFKCRVNSAAFPAPIEKTISKTKGRPKAPQVYTIPPPKEQMAKDKVSLTCMITDFFPEDITVEWQWNGQPAENYKNTQPIMNTNGSYFVYSKLNVQKSNWEAGNTFTCSVLHEGLHNHHTEKSLSHSPGKRTEPRPALTITTSPNLGTRENNADQVTPVSHIGCPNTTQQGSPVFAKLLAKNQASLCNTTLNWHSQDGAGSSYLSQGLRYEEDKKELVVDSPGLYYVFLELKLSPTFTNTGHKVQGWVSLVLQAKPQVDDFDNLALTVELFPCSMENKLVDRSWSQLLLLKAGHRLSVGLRAYLHGAQDAYRDWELSYPNTTSFGLFLVKPDNPWE
notes: extracellular domain;domain: hinge-CH2-CH3 Fc domain; Expressed in 293 cells, purified on protein A; also called murine FLT3L-Fc-4-1BBL
